B1: GRB10-interacting GYF protein 1 (Homo sapiens), O75420 (parent)
chain: MAAETLNFGPEWLRALSGGGSVASPPPSPAMPKYKLADYRYGREEMLALYVKENKVPEELQDKEFAAVLQDEPLQPLALEPLTEEEQRNFSLSVNSVAVLRLMGKGAGPPLAGTSRGRGSTRSRGRGRGDSCFYQRSIEEGDGAFGRSPREIQRSQSWDDRGERRFEKSARRDGARCGFEEGGAGPRKEHARSDSENWRSLREEQEEEEEGSWRLGAGPRRDGDRWRSASPDGGPRSAGWREHGERRRKFEFDLRGDRGGCGEEEGRGGGGSSHLRRCRAPEGFEEDKDGLPEWCLDDEDEEMGTFDASGAFLPLKKGPKEPIPEEQELDFQGLEEEEEPSEGLEEEGPEAGGKELTPLPPQEEKSSSPSPLPTLGPLWGTNGDGDETAEKEPPAAEDDIRGIQLSPGVGSSAGPPGDLEDDEGLKHLQQEAEKLVASLQDSSLEEEQFTAAMQTQGLRHSAAATALPLSHGAARKWFYKDPQGEIQGPFTTQEMAEWFQAGYFSMSLLVKRGCDEGFQPLGEVIKMWGRVPFAPGPSPPPLLGNMDQERLKKQQELAAAALYQQLQHQQFLQLVSSRQLPQCALREKAALGDLTPPPPPPPQQQQQQLTAFLQQLQALKPPRGGDQNLLPTMSRSLSVPDSGRLWDVHTSASSQSGGEASLWDIPINSSTQGPILEQLQLQHKFQERREVELRAKREEEERKRREEKRRQQQQEEQKRRQEEEELFRRKHVRQQELLLKLLQQQQAVPVPPAPSSPPPLWAGLAKQGLSMKTLLELQLEGERQLHKQPPPREPARAQAPNHRVQLGGLGTAPLNQWVSEAGPLWGGPDKSGGGSSGLGLWEDTPKSGGSLVRGLGLKNSRSSPSLSDSYSHLSGRPIRKKTEEEEKLLKLLQGIPRPQDGFTQWCEQMLHTLSATGSLDVPMAVAILKEVESPYDVHDYIRSCLGDTLEAKEFAKQFLERRAKQKASQQRQQQQEAWLSSASLQTAFQANHSTKLGPGEGSKAKRRALMLHSDPSILGYSLHGSSGEIESVDDY
partner: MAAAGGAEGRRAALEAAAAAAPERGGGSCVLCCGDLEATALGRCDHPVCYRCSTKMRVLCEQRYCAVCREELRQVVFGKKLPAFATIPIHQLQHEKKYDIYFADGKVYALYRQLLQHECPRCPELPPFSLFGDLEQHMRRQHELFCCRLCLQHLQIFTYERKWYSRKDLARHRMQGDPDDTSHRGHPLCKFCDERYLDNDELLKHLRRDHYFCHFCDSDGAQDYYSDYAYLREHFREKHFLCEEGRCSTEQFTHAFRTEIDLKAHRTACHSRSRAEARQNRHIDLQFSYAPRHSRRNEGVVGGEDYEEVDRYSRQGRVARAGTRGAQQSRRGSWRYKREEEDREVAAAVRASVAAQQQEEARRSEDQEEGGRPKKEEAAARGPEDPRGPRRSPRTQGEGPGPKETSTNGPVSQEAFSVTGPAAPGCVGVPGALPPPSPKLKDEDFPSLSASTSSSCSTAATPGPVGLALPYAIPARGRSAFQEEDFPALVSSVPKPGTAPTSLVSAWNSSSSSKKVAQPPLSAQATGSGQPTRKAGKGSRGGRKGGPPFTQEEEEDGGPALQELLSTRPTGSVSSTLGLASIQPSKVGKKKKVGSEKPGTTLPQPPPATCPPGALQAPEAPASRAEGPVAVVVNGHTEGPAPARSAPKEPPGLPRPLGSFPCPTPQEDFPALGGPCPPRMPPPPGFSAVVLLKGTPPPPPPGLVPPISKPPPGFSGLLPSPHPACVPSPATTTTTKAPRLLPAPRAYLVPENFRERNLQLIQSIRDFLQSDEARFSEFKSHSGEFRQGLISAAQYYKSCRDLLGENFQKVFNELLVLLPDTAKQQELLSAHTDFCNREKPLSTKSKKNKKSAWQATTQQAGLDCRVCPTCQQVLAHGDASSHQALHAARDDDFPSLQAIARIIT
B2: GRB10-interacting GYF protein 2 (Homo sapiens), Q6Y7W6-1 (parent)
chain: MAAETQTLNFGPEWLRALSSGGSITSPPLSPALPKYKLADYRYGREEMLALFLKDNKIPSDLLDKEFLPILQEEPLPPLALVPFTEEEQRNFSMSVNSAAVLRLTGRGGGGTVVGAPRGRSSSRGRGRGRGECGFYQRSFDEVEGVFGRGGGREMHRSQSWEERGDRRFEKPGRKDVGRPNFEEGGPTSVGRKHEFIRSESENWRIFREEQNGEDEDGGWRLAGSRRDGERWRPHSPDGPRSAGWREHMERRRRFEFDFRDRDDERGYRRVRSGSGSIDDDRDSLPEWCLEDAEEEMGTFDSSGAFLSLKKVQKEPIPEEQEMDFRPVDEGEECSDSEGSHNEEAKEPDKTNKKEGEKTDRVGVEASEETPQTSSSSARPGTPSDHQSQEASQFERKDEPKTEQTEKAEEETRMENSLPAKVPSRGDEMVADVQQPLSQIPSDTASPLLILPPPVPNPSPTLRPVETPVVGAPGMGSVSTEPDDEEGLKHLEQQAEKMVAYLQDSALDDERLASKLQEHRAKGVSIPLMHEAMQKWYYKDPQGEIQGPFNNQEMAEWFQAGYFTMSLLVKRACDESFQPLGDIMKMWGRVPFSPGPAPPPHMGELDQERLTRQQELTALYQMQHLQYQQFLIQQQYAQVLAQQQKAALSSQQQQQLALLLQQFQTLKMRISDQNIIPSVTRSVSVPDTGSIWELQPTASQPTVWEGGSVWDLPLDTTTPGPALEQLQQLEKAKAAKLEQERREAEMRAKREEEERKRQEELRRQQEEILRRQQEEERKRREEEELARRKQEEALRRQREQEIALRRQREEEERQQQEEALRRLEERRREEEERRKQEELLRKQEEEAAKWAREEEEAQRRLEENRLRMEEEAARLRHEEEERKRKELEVQRQKELMRQRQQQQEALRRLQQQQQQQQLAQMKLPSSSTWGQQSNTTACQSQATLSLAEIQKLEEERERQLREEQRRQQRELMKALQQQQQQQQQKLSGWGNVSKPSGTTKSLLEIQQEEARQMQKQQQQQQQHQQPNRARNNTHSNLHTSIGNSVWGSINTGPPNQWASDLVSSIWSNADTKNSNMGFWDDAVKEVGPRNSTNKNKNNASLSKSVGVSNRQNKKVEEEEKLLKLFQGVNKAQDGFTQWCEQMLHALNTANNLDVPTFVSFLKEVESPYEVHDYIRAYLGDTSEAKEFAKQFLERRAKQKANQQRQQQQLPQQQQQQPPQQPPQQPQQQDSVWGMNHSTLHSVFQTNQSNNQQSNFEAVQSGKKKKKQKMVRADPSLLGFSVNASSERLNMGEIETLDDY
partner: B1 partner
B3: GRB10-interacting GYF protein 2 (Homo sapiens), Q6Y7W6-1 (parent)
chain: B2 chain

Variants of B1 are the subject of one assay. As to conditions: with zn598_human ZNF598, Q86UK7.
For the variant Y479A;F490A;W498A;F504A, the “effect of a mutation on the interaction” value is “disrupting interaction strength”.

The variants in a further assay derive from B2. The following applies: with zn598_human ZNF598, Q86UK7.
Regarding Y538A;F549A;W557A;F563A, the “effect of a mutation on the interaction” value is “disrupting interaction strength”.

Variants of B3 are the subject of another assay. As to conditions: with EIF4E2, O60573-1.
Sequence of EIF4E2, O60573-1 (O60573 whole entry): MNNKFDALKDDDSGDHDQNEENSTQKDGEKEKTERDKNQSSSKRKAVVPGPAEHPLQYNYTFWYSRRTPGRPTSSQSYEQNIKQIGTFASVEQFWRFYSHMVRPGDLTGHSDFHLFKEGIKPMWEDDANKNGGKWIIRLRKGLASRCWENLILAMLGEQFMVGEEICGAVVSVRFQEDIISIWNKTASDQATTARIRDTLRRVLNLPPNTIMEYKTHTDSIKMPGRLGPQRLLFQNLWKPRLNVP
Consider Y41A;Y43A;M48A;L49A, for which the “effect of a mutation on the interaction” value was “disrupting interaction strength”.

Regarding W288A;F300A;F306A, the “effect of a mutation on the interaction” value is “with no effect”.

Y538A;F549A;W557A;F563A: the “effect of a mutation on the interaction” value was “with no effect”.

Another assay covers variants of B3. The following applies: with rl22l_human RPL22L1, Q6P5R6.
Consider Y538A;F549A;W557A;F563A, for which the “effect of a mutation on the interaction” value is listed as “with no effect”.

Source of the values: IntAct's records for PubMed 33053355.
